Where a chain is given by its changes, count along the chain named. One block for each binder: values may come before it.
What was measured:
human IL-2Rβ [1] = target: T1, human IL-2Rβ (human, UniProt P14784 27-240, limits assumed); assay: P.E. binding ELISA on coated protein
T1 construct: Recombinant protein, coated (ELISA) or immobilised on CM5 (SPR); also called hu IL-2R; interleukin 2 receptor β-chain
T1 sequence: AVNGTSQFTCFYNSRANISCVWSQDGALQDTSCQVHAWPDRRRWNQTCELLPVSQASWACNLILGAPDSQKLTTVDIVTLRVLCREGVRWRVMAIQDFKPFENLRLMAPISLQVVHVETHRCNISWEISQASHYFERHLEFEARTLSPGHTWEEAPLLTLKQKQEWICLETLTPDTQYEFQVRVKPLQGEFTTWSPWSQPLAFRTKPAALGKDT
Method: In a binding ELISA, human or mouse IL-2Rα, IL-2Rβ and IL-2Rγ proteins were coated directly on maxisorp microtiter plates overnight at 4° C. Free binding sites were blocked using 4% Marvel in PBS for 1 hour. Next, 1:5 dilution of P.E. in 1% Marvel/PBS were added to wells and incubated for 1 hour. […] Binding specificity was determined based on O.D. at 450 nm values compared to negative controls.

human IL-2Rβ [2] = target: T1, human IL-2Rβ; assay: SPR (Biacore), P.E. off-rate ranking

- P.E. binding ELISA OD (human IL-2Rβ [1]): 0.307 OD450 nm
- koff (human IL-2Rβ [2]): 0.00127 s⁻¹
B1: FJ1427 P035MP03D01 (VHH)
VHH: QVQLVESGGGLVQPGGSLGLSCAASGFTFDNYAMSWVRQAPGKGLEWVSSITGAGRGTHYADSVKGRFTISRDNAKNTLYLQMNSLKPEDTAVYYCAKYSSSTYYPPTPARGTDYRGPGTQVTVSS
notes: soluble VHH in periplasmic extract; also called clone nr

- P.E. binding ELISA OD (human IL-2Rβ [1]): 0.137 OD450 nm
- koff (human IL-2Rβ [2]): 0.00114 s⁻¹
B2: FJ1427_P035MP03G03 (VHH)
VHH: B1 VHH
notes: as for B1

- P.E. binding ELISA OD (human IL-2Rβ [1]): 0.447 OD450 nm
- koff (human IL-2Rβ [2]): 0.0016 s⁻¹
B3: FJ1427 P035MP03D04 (VHH)
VHH: QVQLVESGGGLVQPGGSLRLSCAASGFTFSNYAMSWVRQAPGKELEWVSSITSAGRGTHYADTVKGRFTISRDNDENTLYLQMNSLEPEDTAVYYCAKYSSATYYPPTPAQGRDYRGQGTQVTVSS
notes: soluble VHH in periplasmic extract; also called clone nr; 220

- P.E. binding ELISA OD (human IL-2Rβ [1]): 0.299 OD450 nm
- koff (human IL-2Rβ [2]): 0.00116 s⁻¹
B4: FJ1427_P035MP03E06 (VHH)
VHH: B1 VHH with P14A, G16R
notes: as for B1

- P.E. binding ELISA OD (human IL-2Rβ [1]): 0.113 OD450 nm
- koff (human IL-2Rβ [2]): 0.00191 s⁻¹
B5: FJ1427_P035MP03F02 (VHH)
VHH: B1 VHH with G19R, D30S, H59Y, A75D, S100D, T113I, D114A, Y115D, P118Q, T120I
notes: as for B1

- P.E. binding ELISA OD (human IL-2Rβ [1]): 0.203 OD450 nm
- koff (human IL-2Rβ [2]): 0.0011 s⁻¹
B6: FJ1427 P035MP03B01 (VHH)
VHH: B1 VHH with P14A, G19R, D30S, A54F, H59D, K98R, P118Q
notes: as for B1

- P.E. binding ELISA OD (human IL-2Rβ [1]): 0.262 OD450 nm
- koff (human IL-2Rβ [2]): 0.000431 s⁻¹
B7: FJ1427_P035MP03H04 (VHH)
VHH: QVQLVESGGGLVQAGGSLALSCAASGGTFSSYAMGWFRQAPGKEREFVAATTRGGGRTMYAVSTEGRFSCSRDNAKNTVYLLIKNLKPEDTAVYYCAARTSYYDGTYYPASSDFDIWGQGTQVTVSS
notes: as for B1

- P.E. binding ELISA OD (human IL-2Rβ [1]): 0.28 OD450 nm
- koff (human IL-2Rβ [2]): 0.00104 s⁻¹
B8: FJ1427_P035MP03A02 (VHH)
VHH: QVQLVESGGGLVQAGGSLRLSCAASGGTFSSYAMGWFRQAPGKEREFVAATTRGGGRTMYAVSTEGRFTCSRDNAENTVYLQMNSLKPEDTAIYYCAAMTSYYSGTYYPDSSDFDIWGQGTQVTVSS
notes: as for B1

- P.E. binding ELISA OD (human IL-2Rβ [1]): 0.192 OD450 nm
- koff (human IL-2Rβ [2]): 0.00058 s⁻¹
B9: FJ1427_P035MP03G01 (VHH)
VHH: B7 VHH with Q1E, A19R, S69T, I83M, K84N, N85R, L86V, D104S
notes: as for B1

- P.E. binding ELISA OD (human IL-2Rβ [1]): 0.329 OD450 nm
- koff (human IL-2Rβ [2]): 0.000323 s⁻¹
B10: FJ1427 P035MP03E01 (VHH)
VHH: B8 VHH with E76K, Q82L, I93V
notes: as for B1

- P.E. binding ELISA OD (human IL-2Rβ [1]): 0.395 OD450 nm
- koff (human IL-2Rβ [2]): 0.000307 s⁻¹
B11: FJ1427 P035MP03C04 (VHH)
VHH: B7 VHH with Q1E, G16A, A19E, Y80N
notes: as for B1

- P.E. binding ELISA OD (human IL-2Rβ [1]): 0.316 OD450 nm
- koff (human IL-2Rβ [2]): 0.000772 s⁻¹
B12: FJ1427 P035MP03H05 (VHH)
VHH: B7 VHH with V2L
notes: as for B1

- P.E. binding ELISA OD (human IL-2Rβ [1]): 0.628 OD450 nm
- koff (human IL-2Rβ [2]): 0.00294 s⁻¹
B13: FJ1427 P035MP02F12 (VHH)
VHH: QLQLVESGGGLVQTGTSLRLSCAASGHTSRINAMGWFRQFPGKEREFVAAISRNGGSTVYVDSVKGRFTISRDNAKSTVYLQMNSLKPEDTAVYYCTATDAVGWTTRWMTADFGFWGQGTQVTVSS
notes: soluble VHH in periplasmic extract; also called clone nr; 190

- P.E. binding ELISA OD (human IL-2Rβ [1]): 0.488 OD450 nm
- koff (human IL-2Rβ [2]): 0.00124 s⁻¹
B14: FJ1427_P035MP03E02 (VHH)
VHH: QVQLVESGGGLVQVGGSLSVSCAASGRSFDSITMAYFRQAPGNEREFIAGINFSGSRTAYGDSVKGRFTISRDNAKNTVFLQMNSLNPEDTAVYYCAASPRGFYGPGHALYDYWGQGTQVTVSS
notes: as for B1

- P.E. binding ELISA OD (human IL-2Rβ [1]): 0.108 OD450 nm
- koff (human IL-2Rβ [2]): 0.0115 s⁻¹
B15: FJ1427_P035MP02E12 (VHH)
VHH: QVQLQESGGGLVQAGGSMRLSCAASGRTFSNYVIAWFRQAPGKEREFVGAITQTGRGTFYASSVEGRFTLSRLNDQSTVYLQMNSLNPEDTGVYYCSAPRSGRAGTRNQMDYEYWGQGTQVTVSS
notes: as for B1

- P.E. binding ELISA OD (human IL-2Rβ [1]): 0.327 OD450 nm
- koff (human IL-2Rβ [2]): 0.000365 s⁻¹
B16: FJ1427_P035MP03H01 (VHH)
VHH: QVQLVESGGGSVQTGGSLRLSCVVSGSHFISDVMGWYRQVPGKQRELVADMADGGSAKYADSVKGRFTILRDSVKNTVTLQMSSLNPEDTGVYYCKAGLWITGRHSDYWGQGTQVTVTS
notes: soluble VHH in periplasmic extract; also called clone nr; 200

- P.E. binding ELISA OD (human IL-2Rβ [1]): 0.305 OD450 nm
- koff (human IL-2Rβ [2]): 0.000373 s⁻¹
B17: FJ1427_P035MP03A04 (VHH)
VHH: B16 VHH with Q1E, A57V, A60G, S106F
notes: as for B1

- P.E. binding ELISA OD (human IL-2Rβ [1]): 0.116 OD450 nm
- koff (human IL-2Rβ [2]): 0.000796 s⁻¹
B18: FJ1427 P035MP03D02 (VHH)
VHH: QVQLQESGGGLVQTGGSLRLSCAVSGSRFISDVMGWYRQVPGKQRELVADMADGGSAKYADSVKGRFSILRDSVKNTVYLQMSSLKPEDTGIYYCKAGLWLAGRHSDYWGQGTQVTVSS
notes: as for B1

- P.E. binding ELISA OD (human IL-2Rβ [1]): 0.107 OD450 nm
- koff (human IL-2Rβ [2]): 0.000361 s⁻¹
B19: FJ1427_P035MP03F03 (VHH)
VHH: B16 VHH with G10T, S11L, A60G, L70V, T79Y, T102K
notes: as for B1

- P.E. binding ELISA OD (human IL-2Rβ [1]): 0.296 OD450 nm
- koff (human IL-2Rβ [2]): 0.000248 s⁻¹
B20: FJ1427 P035MP03A03 (VHH)
VHH: B16 VHH with Q1E, A57V, A60G, S106F
notes: as for B1

- P.E. binding ELISA OD (human IL-2Rβ [1]): 0.31 OD450 nm
- koff (human IL-2Rβ [2]): 0.000499 s⁻¹
B21: FJ1427_P035MP03B03 (VHH)
VHH: B18 VHH with V2L, Q5V, L101I
notes: soluble VHH in periplasmic extract; also called clone nr; 210

- P.E. binding ELISA OD (human IL-2Rβ [1]): 0.22 OD450 nm
- koff (human IL-2Rβ [2]): 0.000253 s⁻¹
B22: FJ1427_P035MP03E04 (VHH)
VHH: B18 VHH with Q5V, R28H, G42E, G55N, L101I
notes: as for B1

- P.E. binding ELISA OD (human IL-2Rβ [1]): 0.186 OD450 nm
- koff (human IL-2Rβ [2]): 0.00043 s⁻¹
B23: FJ1427 P035MP03B04 (VHH)
VHH: QVQLVESGGGLVQTGGSLRLSCAASGSQFINDVMGWYRQVPGKQRELVADMDDTGSTKYADSVKGRFTILRDSVKNTAYLQMSNLKPEDTGVYYCKAGLWIKGRHSDYWGQGTQVTVSS
notes: as for B1

- P.E. binding ELISA OD (human IL-2Rβ [1]): 0.153 OD450 nm
- koff (human IL-2Rβ [2]): 0.000402 s⁻¹
B24: FJ1427_P035MP03F04 (VHH)
VHH: B23 VHH with Q1E
notes: as for B1

- P.E. binding ELISA OD (human IL-2Rβ [1]): 0.434 OD450 nm
- koff (human IL-2Rβ [2]): 0.000286 s⁻¹
B25: FJ1427_P035MP03F06 (VHH)
VHH: B23 VHH with V5Q
notes: as for B1

- P.E. binding ELISA OD (human IL-2Rβ [1]): 0.521 OD450 nm
- koff (human IL-2Rβ [2]): 0.0021 s⁻¹
B26: FJ1427_P035MP06B01 (VHH)
VHH: QVQLVESGGGLVQAGGSLRLSCAASGDVFVRYTMAWFRQAPGKEREFVASVTDSGRTTDYVHSVKGRFTVSRDNAKNTVYLQMNNLKPEDTAVYYCAANTDYFQIRSLDANTWGQGTQVTVSS
notes: as for B1

- P.E. binding ELISA OD (human IL-2Rβ [1]): 1.12 OD450 nm
- koff (human IL-2Rβ [2]): 0.00064 s⁻¹
B27: FJ1427 P035MP03B08 (VHH)
VHH: B26 VHH with S21A, A24L, H62A, K65Q, A75N, N85S, A110R
notes: soluble VHH in periplasmic extract; also called clone nr; 250

- P.E. binding ELISA OD (human IL-2Rβ [1]): 0.828 OD450 nm
- koff (human IL-2Rβ [2]): 0.00159 s⁻¹
B28: FJ1427 P035MP03C02 (VHH)
VHH: QVQLVESGGGLVQVGDSLRLSCAASGRTVGSANMGWFRQAPGKEREFVAVITWSTGSTVYADSVKGRFTISRDNAKNTVYLDMSSLKPEDTAVYYCAADVYPYSGNLNIMDYWGKGTLVTVSS
notes: as for B1

- P.E. binding ELISA OD (human IL-2Rβ [1]): 0.529 OD450 nm
- koff (human IL-2Rβ [2]): 0.00241 s⁻¹
B29: FJ1427_P035MP03B02 (VHH)
VHH: B28 VHH with Q1E, E89D
notes: as for B1

- P.E. binding ELISA OD (human IL-2Rβ [1]): 0.265 OD450 nm
- koff (human IL-2Rβ [2]): 0.000538 s⁻¹
B30: FJ1427_P035MP03D03 (VHH)
VHH: B28 VHH with M83L, L118Q
notes: as for B1

- P.E. binding ELISA OD (human IL-2Rβ [1]): 0.221 OD450 nm
- koff (human IL-2Rβ [2]): 0.00447 s⁻¹
B31: FJ1427_P035MP03F01 (VHH)
VHH: QVQLVESGGGLVQVGGSLRVSCAASGRTSGDRNMGWFRQAPGKEREFVGIITWSSGSTVYADSVKGRFTISRDNAKNTVYLDMSSLKPEDTAVYYCAADYYPYSGSWNIMDYWGKGTLVTVSS
notes: as for B1

- P.E. binding ELISA OD (human IL-2Rβ [1]): 0.281 OD450 nm
- koff (human IL-2Rβ [2]): 0.00136 s⁻¹
B32: FJ1427_P035MP03E03 (VHH)
VHH: QVQLVESGGGLVQPGGSLRLSCAVSGGTLHDYGIGWIRQAPGKQREGVSCMSRSDDKTYYADYVKGRFTISKDNAKNTVYLQMISLKPEDTAVYYCAAVDAYGCSLVQPTTYDYWGQGTQVTVSS
notes: as for B1

- P.E. binding ELISA OD (human IL-2Rβ [1]): 0.684 OD450 nm
- koff (human IL-2Rβ [2]): 0.000754 s⁻¹
B33: FJ1427_P035MP03G02 (VHH)
VHH: EVQLVESGGGLVQPGGSLRLSCAISGGTLDSYGIGWVRQAPGKQREGVSCMSRSDDRTFYADSVKGRFTISKDNAKSTVYLQMTNLKPDDTAVYYCAAVDAYGCSLVQPTTYDFWGLGTQVTVSS
notes: as for B1

— patent US20240409645A1 (DUALYX, published 2024)
